Measurements: the supplement of paper PMC7125110
± gives the standard error. Variants at the floor of the assay were thinned out.

B1: glmS ribozyme (parent)
chain: AUAAAAGCGCCAGAACUACAGAAAUGUAGUUGACGAGGAGGAGGUUUAUCGAAUUUUCGGCGGAUGCCUCCAAA

Experiments:
Details in all cases: with glucosamine-6-phosphate
glucosamine-6-phosphate [1] = variants of: B1; assay: self-cleavage kobs at 40 uM GlcN6P; higher = faster cleavage; RNA array
Procedure, shortened: (§1)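 A hybridised Cy3 probe tracked barcoded ribozyme variants, transcribed in situ by E. coli RNA polymerase on sequenced MiSeq chips, at 37 °C. The variants received 40 μM to 10 mM glucosamine-6-phosphate in HEPES/KCl/Mg(OAc)2 buffer. kobs came from decay fits and kcat and KM from weighted Michaelis–Menten fits.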

glucosamine-6-phosphate [2] = variants of: B1; assay: self-cleavage kobs at 10000 uM GlcN6P; higher = faster cleavage; RNA array
Procedure, shortened: as §1

glucosamine-6-phosphate [3] = variants of: B1; assay: self-cleavage kobs at 160 uM GlcN6P; higher = faster cleavage; RNA array
Procedure, shortened: as §1

glucosamine-6-phosphate [4] = variants of: B1; assay: self-cleavage kobs at 640 uM GlcN6P; higher = faster cleavage; RNA array
Procedure, shortened: as §1

glucosamine-6-phosphate [5] = variants of: B1; assay: self-cleavage kobs at 2500 uM GlcN6P; higher = faster cleavage; RNA array
Procedure, shortened: as §1

Variant | self-cleavage kobs at 40 uM GlcN6P (glucosamine-6-phosphate [1]) | self-cleavage kobs at 10000 uM GlcN6P (glucosamine-6-phosphate [2]) | self-cleavage kobs at 160 uM GlcN6P (glucosamine-6-phosphate [3]) | self-cleavage kobs at 640 uM GlcN6P (glucosamine-6-phosphate [4]) | self-cleavage kobs at 2500 uM GlcN6P (glucosamine-6-phosphate [5])
A14G U31G G40A C71A | 5.41e-05 ± 1.8e-05 s⁻¹ | 0.000822 ± 0.00016 s⁻¹ | – | – | –
A14G G62A | < 1e-05 s⁻¹ | – | – | – | –
G13U C61U | < 1e-05 s⁻¹ | < 1e-05 s⁻¹ | < 1e-05 s⁻¹ | < 1e-05 s⁻¹ | –
A14C A36G A48U G59A | < 1e-05 s⁻¹ | < 1e-05 s⁻¹ | – | < 1e-05 s⁻¹ | < 1e-05 s⁻¹
A12C U55G | 0.000833 ± 0.00013 s⁻¹ | 0.0274 ± 0.0044 s⁻¹ | 0.000979 ± 0.00021 s⁻¹ | 0.00404 ± 0.00084 s⁻¹ | 0.00822 ± 0.0022 s⁻¹
A12U G37C A42U A48C | < 1e-05 s⁻¹ | – | – | – | –
G13A A15U G41U C50A U54A U57C | < 1e-05 s⁻¹ | < 1e-05 s⁻¹ | – | – | –
A14G A15U | 0.00111 ± 0.00019 s⁻¹ | 0.0592 ± 0.021 s⁻¹ | 0.000722 ± 0.00014 s⁻¹ | 0.00751 ± 0.0013 s⁻¹ | 0.00555 ± 0.0014 s⁻¹
A14G G41U U45A C70U | 0.000293 ± 5.4e-05 s⁻¹ | 0.000993 ± 0.00019 s⁻¹ | 0.00043 ± 0.00013 s⁻¹ | 0.000588 ± 0.00015 s⁻¹ | 0.00191 ± 0.00054 s⁻¹
A14C A64G U65A C70A C71G | < 1e-05 s⁻¹ | < 1e-05 s⁻¹ | – | – | –
A14U C16U C70U | 0.000248 ± 7.9e-05 s⁻¹ | 0.00877 ± 0.0026 s⁻¹ | – | – | 0.00092 ± 0.0002 s⁻¹
A12G A14G A15C U30G | 7.29e-05 ± 2e-05 s⁻¹ | 0.0042 ± 0.00087 s⁻¹ | – | – | –
A14C U56G | 0.00282 ± 0.00046 s⁻¹ | 0.0693 ± 0.022 s⁻¹ | 0.00922 ± 0.003 s⁻¹ | 0.0201 ± 0.0065 s⁻¹ | 0.00838 ± 0.0029 s⁻¹
A14C A15U U47C | < 1e-05 s⁻¹ | – | – | – | –
G13U G32A G37C A42C | < 1e-05 s⁻¹ | < 1e-05 s⁻¹ | < 1e-05 s⁻¹ | – | < 1e-05 s⁻¹
G13U U57G | < 1e-05 s⁻¹ | – | – | – | –
G13A C67A C71A | < 1e-05 s⁻¹ | – | – | – | –
A12U G13A U31A G38A G40A | < 1e-05 s⁻¹ | < 1e-05 s⁻¹ | – | – | –
G13U G38U C68G | 0.00012 ± 4.3e-05 s⁻¹ | 7.63e-05 ± 1.8e-05 s⁻¹ | 0.000111 ± 2.7e-05 s⁻¹ | 0.000157 ± 4.9e-05 s⁻¹ | 6.64e-05 ± 2.9e-05 s⁻¹
A14C G41A C50G G59U | < 1e-05 s⁻¹ | – | – | – | –
A12G G59A | < 1e-05 s⁻¹ | 2.34e-05 ± 1.1e-05 s⁻¹ | < 1e-05 s⁻¹ | – | –
G13C U45C U46A | < 1e-05 s⁻¹ | < 1e-05 s⁻¹ | < 1e-05 s⁻¹ | < 1e-05 s⁻¹ | –
G13U A33G | < 1e-05 s⁻¹ | < 1e-05 s⁻¹ | < 1e-05 s⁻¹ | < 1e-05 s⁻¹ | < 1e-05 s⁻¹
A14C A42C | < 1e-05 s⁻¹ | – | – | < 1e-05 s⁻¹ | < 1e-05 s⁻¹
A14U A39C U49A | < 1e-05 s⁻¹ | – | – | – | –
A14G C50U G66U C68A | 5.56e-05 ± 2.7e-05 s⁻¹ | 4.35e-05 ± 1.8e-05 s⁻¹ | – | – | –

Variant | self-cleavage kobs at 40 uM GlcN6P (glucosamine-6-phosphate [1]) | self-cleavage kobs at 10000 uM GlcN6P (glucosamine-6-phosphate [2]) | self-cleavage kobs at 160 uM GlcN6P (glucosamine-6-phosphate [3]) | self-cleavage kobs at 640 uM GlcN6P (glucosamine-6-phosphate [4]) | self-cleavage kobs at 2500 uM GlcN6P (glucosamine-6-phosphate [5])
G13U G40U A48U C67A | < 1e-05 s⁻¹ | < 1e-05 s⁻¹ | – | – | –
A14U C34A G35C U45A C67U | < 1e-05 s⁻¹ | – | – | – | –
A12G A64U C71U | < 1e-05 s⁻¹ | – | – | – | –
A12U U31G A33G C50U | < 1e-05 s⁻¹ | – | – | – | –
A14U C61A | < 1e-05 s⁻¹ | < 1e-05 s⁻¹ | – | – | –
A14C C16G C50G | 8.94e-05 ± 3.4e-05 s⁻¹ | – | – | – | –
G13A C61G C68A C70U | < 1e-05 s⁻¹ | – | – | – | –
G13U U31C A64U | < 1e-05 s⁻¹ | – | – | – | –
A12G A52C C67G C71U | < 1e-05 s⁻¹ | – | – | – | < 1e-05 s⁻¹
A14C C50G A64G | 4.29e-05 ± 2.1e-05 s⁻¹ | – | – | – | –
A12U G29U | 0.000958 ± 0.00022 s⁻¹ | 0.019 ± 0.0045 s⁻¹ | – | – | –
A14G U31A A52C | < 1e-05 s⁻¹ | – | – | – | –
G13C G51C | < 1e-05 s⁻¹ | < 1e-05 s⁻¹ | – | < 1e-05 s⁻¹ | < 1e-05 s⁻¹
A12U C16A G29A A53U | 9.7e-05 ± 2e-05 s⁻¹ | – | – | – | –
G13U G41A U49G U55G | < 1e-05 s⁻¹ | – | – | – | < 1e-05 s⁻¹
G13A G41C C61A | < 1e-05 s⁻¹ | – | < 1e-05 s⁻¹ | < 1e-05 s⁻¹ | –
A12G G63U | < 1e-05 s⁻¹ | < 1e-05 s⁻¹ | < 1e-05 s⁻¹ | – | –
A14G G29A | 0.000403 ± 6.2e-05 s⁻¹ | 0.0317 ± 0.0076 s⁻¹ | – | 0.00394 ± 0.00079 s⁻¹ | 0.00353 ± 0.00081 s⁻¹
A12C U56A A64C | < 1e-05 s⁻¹ | – | – | 9.73e-05 ± 3.4e-05 s⁻¹ | –
A14C C34G G40U | < 1e-05 s⁻¹ | – | – | – | < 1e-05 s⁻¹
A14G U69C | 0.00132 ± 0.00036 s⁻¹ | 0.00782 ± 0.0029 s⁻¹ | – | – | –
A12C G43C G66U | < 1e-05 s⁻¹ | < 1e-05 s⁻¹ | – | – | –
A14G A48C C68A | < 1e-05 s⁻¹ | < 1e-05 s⁻¹ | < 1e-05 s⁻¹ | – | –
G13U A14U U30C A33C C71A | < 1e-05 s⁻¹ | < 1e-05 s⁻¹ | – | – | –
A12G G40U U54G | < 1e-05 s⁻¹ | 0.000231 ± 6e-05 s⁻¹ | – | – | –
G13A G38U C50G A64G | 6.47e-05 ± 2.4e-05 s⁻¹ | – | – | 0.00011 ± 5.2e-05 s⁻¹ | –
